{
  "source": "patent US20160002343A1",
  "about": "(AbbVie / Abbott, published 2016)",
  "key": {"[1]": {"target": "Repulsive guidance molecule A (Mus musculus (Mouse)) (UniProt Q6PCX7)", "test": "cell-based or functional assay"}, "[2]": {"target": "T1, Repulsive guidance molecule A (Mus musculus (Mouse), UniProt Q6PCX7 48-427, GPI anchor at the C-terminus after removal of 428-454. Autocatalytic cleavage between 169 and 170 may split the protein into two disulfide-linked fragments. The letters carry neither.)", "T1 sequence": "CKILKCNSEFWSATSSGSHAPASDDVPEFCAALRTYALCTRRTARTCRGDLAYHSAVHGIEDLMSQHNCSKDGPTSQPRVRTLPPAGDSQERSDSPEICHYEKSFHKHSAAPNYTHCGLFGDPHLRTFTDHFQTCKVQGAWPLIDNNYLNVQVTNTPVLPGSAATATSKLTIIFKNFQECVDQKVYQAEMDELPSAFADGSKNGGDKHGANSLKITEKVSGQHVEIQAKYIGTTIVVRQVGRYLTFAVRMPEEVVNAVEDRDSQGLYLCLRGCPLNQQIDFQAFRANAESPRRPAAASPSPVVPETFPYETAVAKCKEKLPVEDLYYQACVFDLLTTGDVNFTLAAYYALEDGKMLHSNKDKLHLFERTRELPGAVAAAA", "test": "cell-based or functional assay"}},
  "data": [
    {"binder": "RGMA(AE12-1)-SS-TfR(AB402) (bispecific antibody, part only; not given: Inner anti-TfR domains, linkers, constant regions, not shown: a dimerising Fc or GST) heavy, part: EVQLVQSGAEVKKPGASVKVSCKASGYTFTSHGISWVRQAPGQGLDWMGWISPYSGNTNYAQKLQGRVTMTTDTSTSTAYMELSSLRSEDTAVYYCARVGSGPYYYMDVWGQGTLVTVSS light, part: QSALTQPRSVSGSPGQSVTISCTGTSSSVGDSIYVSWYQQHPGKAPKLMLYDVTKRPSGVPDRFSGSKSGNTASLTISGLQAEDEADYYCCSYAGTDTLFGGGTKVTVLG", "values": [
      {"measurement": "BMP Assay IC50", "setting": "[1]", "result": 0.436, "unit": "nM"}
    ]},
    {"binder": "TfR(AB405)-LL-RGMA(AE12-1) (bispecific antibody, part only; not given: Outer anti-TfR domains, linkers, constant regions, not shown: a dimerising Fc or GST) heavy, part: EVQLVQSGAEVKKPGASVKVSCKASGYTFTSHGISWVRQAPGQGLDWMGWISPYSGNTNYAQKLQGRVTMTTDTSTSTAYMELSSLRSEDTAVYYCARVGSGPYYYMDVWGQGTLVTVSS light, part: QSALTQPRSVSGSPGQSVTISCTGTSSSVGDSIYVSWYQQHPGKAPKLMLYDVTKRPSGVPDRFSGSKSGNTASLTISGLQAEDEADYYCCSYAGTDTLFGGGTKVTVLG", "values": [
      {"measurement": "BMP Assay IC50", "setting": "[1]", "result": 0.701, "unit": "nM"}
    ]},
    {"binder": "RGMA (AE12-1) (antibody, V domains shown) VH: EVQLVQSGAEVKKPGASVKVSCKASGYTFTSHGISWVRQAPGQGLDWMGWISPYSGNTNYAQKLQGRVTMTTDTSTSTAYMELSSLRSEDTAVYYCARVGSGPYYYMDVWGQGTLVTVSS VL: QSALTQPRSVSGSPGQSVTISCTGTSSSVGDSIYVSWYQQHPGKAPKLMLYDVTKRPSGVPDRFSGSKSGNTASLTISGLQAEDEADYYCCSYAGTDTLFGGGTKVTVLG", "values": [
      {"measurement": "BMP Assay IC50", "setting": "[2]", "result": 0.25, "unit": "nM"}
    ]},
    {"binder": "TfR(AB405)-GS-RGMA(AE12-1) (bispecific antibody, part only; not given: anti-TfR domains, constants, not shown: a dimerising Fc or GST) heavy, part: GGGGSGGGGSEVQLVQSGAEVKKPGASVKVSCKASGYTFTSHGISWVRQAPGQGLDWMGWISPYSGNTNYAQKLQGRVTMTTDTSTSTAYMELSSLRSEDTAVYYCARVGSGPYYYMDVWGQGTLVTVSS light, part: GGSGGGGSGQSALTQPRSVSGSPGQSVTISCTGTSSSVGDSIYVSWYQQHPGKAPKLMLYDVTKRPSGVPDRFSGSKSGNTASLTISGLQAEDEADYYCCSYAGTDTLFGGGTKVTVLG", "values": [
      {"measurement": "BMP Assay IC50", "setting": "[1]", "result": 3.12, "unit": "nM"}
    ]},
    {"binder": "RGMA(AE12-1)-LS-TfR(AB403) (bispecific antibody) VH: EVQLVQSGAEVKKPGASVKVSCKASGYTFTSHGISWVRQAPGQGLDWMGWISPYSGNTNYAQKLQGRVTMTTDTSTSTAYMELSSLRSEDTAVYYCARVGSGPYYYMDVWGQGTLVTVSSASTKGPSVFPLAPEVQLVESGGGLVQPGGSLRLSCAASGFTFSNYGMHWIRQAPGKGLEWIAMIYYDSSKMNYADTVKGRFTISRDNAKNSLYLQMNSLRAEDTAVYYCAVPTSHYVVDVWGQGTTVTVSS VL: QSALTQPRSVSGSPGQSVTISCTGTSSSVGDSIYVSWYQQHPGKAPKLMLYDVTKRPSGVPDRFSGSKSGNTASLTISGLQAEDEADYYCCSYAGTDTLFGGGTKVTVLGQPKAAPEIVMTQSPATLSVSPGERATLSCQASQDIGNWLAWYQQKPGQSPRLLIYGATSLADGVPARFSGSRSGTEFTLTISSLQSEDFAVYYCLQAYNTPWTFGGGTKVEIK", "values": [
      {"measurement": "BMP Assay IC50", "setting": "[2]", "result": "< 0.025", "unit": "nM"}
    ]},
    {"binder": "RGMA(AE12-1)-SS-TfR(AB403) (bispecific antibody) VH: EVQLVQSGAEVKKPGASVKVSCKASGYTFTSHGISWVRQAPGQGLDWMGWISPYSGNTNYAQKLQGRVTMTTDTSTSTAYMELSSLRSEDTAVYYCARVGSGPYYYMDVWGQGTLVTVSSASTKGPEVQLVESGGGLVQPGGSLRLSCAASGFTFSNYGMHWIRQAPGKGLEWIAMIYYDSSKMNYADTVKGRFTISRDNAKNSLYLQMNSLRAEDTAVYYCAVPTSHYVVDVWGQGTTVTVSS VL: QSALTQPRSVSGSPGQSVTISCTGTSSSVGDSIYVSWYQQHPGKAPKLMLYDVTKRPSGVPDRFSGSKSGNTASLTISGLQAEDEADYYCCSYAGTDTLFGGGTKVTVLGQPKAAPEIVMTQSPATLSVSPGERATLSCQASQDIGNWLAWYQQKPGQSPRLLIYGATSLADGVPARFSGSRSGTEFTLTISSLQSEDFAVYYCLQAYNTPWTFGGGTKVEIK", "values": [
      {"measurement": "BMP Assay IC50", "setting": "[2]", "result": 1.18, "unit": "nM"}
    ]},
    {"binder": "RGMA(AE12-1)-GS-TfR(AB403) DVD-Ig protein (bispecific antibody, human IgG1, not shown: a dimerising Fc or GST) heavy: EVQLVQSGAEVKKPGASVKVSCKASGYTFTSHGISWVRQAPGQGLDWMGWISPYSGNTNYAQKLQGRVTMTTDTSTSTAYMELSSLRSEDTAVYYCARVGSGPYYYMDVWGQGTLVTVSSGGGGSGGGGSEVQLVESGGGLVQPGGSLRLSCAASGFTFSNYGMHWIRQAPGKGLEWIAMIYYDSSKMNYADTVKGRFTISRDNAKNSLYLQMNSLRAEDTAVYYCAVPTSHYVVDVWGQGTTVTVSS light: QSALTQPRSVSGSPGQSVTISCTGTSSSVGDSIYVSWYQQHPGKAPKLMLYDVTKRPSGVPDRFSGSKSGNTASLTISGLQAEDEADYYCCSYAGTDTLFGGGTKVTVLGGGSGGGGSGEIVMTQSPATLSVSPGERATLSCQASQDIGNWLAWYQQKPGQSPRLLIYGATSLADGVPARFSGSRSGTEFTLTISSLQSEDFAVYYCLQAYNTPWTFGGGTKVEIKR", "values": [
      {"measurement": "BMP Assay IC50", "setting": "[2]", "result": "< 0.025", "unit": "nM"}
    ]},
    {"binder": "RGMA(AE12-1)-GS-TfR(AB402) (bispecific antibody, part only; not given: anti-TfR domains, constants, not shown: a dimerising Fc or GST) heavy, part: EVQLVQSGAEVKKPGASVKVSCKASGYTFTSHGISWVRQAPGQGLDWMGWISPYSGNTNYAQKLQGRVTMTTDTSTSTAYMELSSLRSEDTAVYYCARVGSGPYYYMDVWGQGTLVTVSSGGGGSGGGGS light, part: QSALTQPRSVSGSPGQSVTISCTGTSSSVGDSIYVSWYQQHPGKAPKLMLYDVTKRPSGVPDRFSGSKSGNTASLTISGLQAEDEADYYCCSYAGTDTLFGGGTKVTVLGGGSGGGGSG", "values": [
      {"measurement": "BMP Assay IC50", "setting": "[1]", "result": 0.014, "unit": "nM"}
    ]},
    {"binder": "TfR(AB405)-SL-RGMA(AE12-1) (bispecific antibody) VH: QVQLVQSGAEVKKPGASVKVSCKASGFTFSNYGMHWIRQAPGQGLEWIAMIYYDSSKMNYADTVKGRFTITRDNSTNTLYMELSSLRSEDTAVYYCAVPTSHYVVDVWGQGTTVTVSSASTKGPEVQLVQSGAEVKKPGASVKVSCKASGYTFTSHGISWVRQAPGQGLDWMGWISPYSGNTNYAQKLQGRVTMTTDTSTSTAYMELSSLRSEDTAVYYCARVGSGPYYYMDVWGQGTLVTVSS VL: EIVMTQSPATLSVSPGERATLSCQASQDIGNWLAWYQQKPGQSPRLLIYGATSLADGVPARFSGSRSGTEFTLTISSLQSEDFAVYYCLQAYNTPWTFGGGTKVEIKRTVAAPSVFIFPPQSALTQPRSVSGSPGQSVTISCTGTSSSVGDSIYVSWYQQHPGKAPKLMLYDVTKRPSGVPDRFSGSKSGNTASLTISGLQAEDEADYYCCSYAGTDTLFGGGTKVTVL", "values": [
      {"measurement": "BMP Assay IC50", "setting": "[2]", "result": 0.73, "unit": "nM"}
    ]}
  ]
}
